T1: PAR2-3: P157: 1-377, glycosylated, pBacMamHisStrepII, full length (human, UniProt P55085 26-377)
T1 construct: detergent-solubilised analyte in SPR, or on infected cells in flow cytometry; also called FL-N PAR2 StaR; FL-N StaR; not shown: C-terminal StrepII and deca-histidine tags
T1 sequence: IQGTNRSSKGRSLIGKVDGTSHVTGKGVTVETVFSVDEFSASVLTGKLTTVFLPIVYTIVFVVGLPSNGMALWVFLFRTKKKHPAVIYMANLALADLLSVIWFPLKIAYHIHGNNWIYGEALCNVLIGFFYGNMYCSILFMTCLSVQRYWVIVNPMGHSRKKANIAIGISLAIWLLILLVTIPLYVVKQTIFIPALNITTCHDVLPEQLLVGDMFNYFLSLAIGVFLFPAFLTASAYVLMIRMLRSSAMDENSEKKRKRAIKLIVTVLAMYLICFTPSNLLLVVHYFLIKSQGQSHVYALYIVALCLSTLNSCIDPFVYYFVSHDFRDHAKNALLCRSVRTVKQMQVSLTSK

T2: Soluble PAR2 StaR (recombinant human PAR2 StaR protein in detergent, construct not stated) (human, UniProt P55085 37-377, limits assumed)
T2 construct: also called purified PAR2
T2 sequence: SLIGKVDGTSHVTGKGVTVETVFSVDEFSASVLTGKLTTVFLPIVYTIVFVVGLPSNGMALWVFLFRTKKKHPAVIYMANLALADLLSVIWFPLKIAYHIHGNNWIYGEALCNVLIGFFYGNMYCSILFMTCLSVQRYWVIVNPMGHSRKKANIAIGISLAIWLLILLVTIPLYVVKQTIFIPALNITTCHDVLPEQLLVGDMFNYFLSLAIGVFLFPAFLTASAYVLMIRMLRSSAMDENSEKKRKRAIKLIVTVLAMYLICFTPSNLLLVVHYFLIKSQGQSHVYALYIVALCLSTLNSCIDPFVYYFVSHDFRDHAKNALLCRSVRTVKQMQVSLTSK

T3: Wildtype human PAR2 expressed on cells (human, UniProt P55085 37-397)
T3 sequence: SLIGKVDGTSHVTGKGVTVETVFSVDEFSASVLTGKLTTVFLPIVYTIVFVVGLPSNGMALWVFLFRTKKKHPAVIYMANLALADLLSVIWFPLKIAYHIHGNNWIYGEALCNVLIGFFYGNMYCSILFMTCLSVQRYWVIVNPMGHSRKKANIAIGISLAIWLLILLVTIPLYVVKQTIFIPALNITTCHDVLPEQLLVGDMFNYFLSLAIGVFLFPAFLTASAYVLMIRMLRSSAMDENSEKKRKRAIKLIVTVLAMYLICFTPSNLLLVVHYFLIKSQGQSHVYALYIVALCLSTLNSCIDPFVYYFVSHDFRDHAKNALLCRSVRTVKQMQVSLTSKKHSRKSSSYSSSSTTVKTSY

T4: Human PAR2 StaR incorporated into nanodiscs (construct not stated) (human, UniProt P55085 37-377, limits assumed)
T4 construct: also called nanodisc-embedded StaR
T4 sequence: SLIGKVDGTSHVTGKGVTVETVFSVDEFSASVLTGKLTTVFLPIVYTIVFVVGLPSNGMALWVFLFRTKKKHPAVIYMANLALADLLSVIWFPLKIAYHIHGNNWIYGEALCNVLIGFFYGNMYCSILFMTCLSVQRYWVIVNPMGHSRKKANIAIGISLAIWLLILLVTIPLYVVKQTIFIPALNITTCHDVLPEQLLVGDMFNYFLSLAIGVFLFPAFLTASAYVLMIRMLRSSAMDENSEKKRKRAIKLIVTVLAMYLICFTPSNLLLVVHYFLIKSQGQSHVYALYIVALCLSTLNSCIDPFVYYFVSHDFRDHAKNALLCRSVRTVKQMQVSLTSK


What was measured:
[1] = biological target: T1, PAR2-3: P157: 1-377, glycosylated, …; experiment: SPR (table head: Octet); IgG captured via Fc, detergent solubilised FL-N PAR2 StaR as analyte
Procedure: (§1) For all eleven IgG1f_AEASS, affinities to human PAR2 were determined by SPR. The IgGs were captured via their Fc-fragment and detergent (LMNG/CHS) solubilised FL-N PAR2 StaR was used as analyte in solution. 50 mM HEPES pH 7.5, 150 mM NaCl, 0.02% LMNG was used as assay buffer. To minimize artefacts introduced by non-specific interaction of FL-N PAR2 StaR with the sensors, the CM3 sensors were used as basis to immobilize a high density of anti-hu-Fc capture antibody (BR-1008-39, GE Healthcare). IgGs were captured with relatively high levels of approximately 500 RU to achieve a higher ratio of specific to non-specific binding (while still maintaining conditions suitable for kinetic characterization). Affinities ranged from 6.5 nM to 130 pM. The koff values of the best candidates were at the lower assay limit. A minimum koff of 2.00E-05 s⁻¹ was reported (corresponding to 3% dissociation in 1500 s).

[2] = biological target: T2, Soluble PAR2 StaR (recombinant human …); experiment: SPR Biacore T200; IgG captured, PAR2 as analyte; 25 C, 90 min dissociation
[3] = biological target: T3, Wildtype human PAR2 expressed on cells; experiment: cell-based or functional assay
[4] = biological target: T2, Soluble PAR2 StaR (recombinant human …); experiment: SPR Biacore; soluble PAR2 StaR
[5] = biological target: T1, PAR2-3: P157: 1-377, glycosylated, …; experiment: SPR (table head: Octet); IgG captured via Fc, FL-N PAR2 StaR as analyte; koff at the lower assay limit
Procedure: as §1

[6] = biological target: T3, Wildtype human PAR2 expressed on cells; experiment: cell-based or functional assay; remark: listed apart in the source
[7] = biological target: Cynomolgus PAR2 on BacMam-infected HEK293 cells (cynomolgus); experiment: cell-based or functional assay
[8] = biological target: T3, Wildtype human PAR2 expressed on cells; experiment: cell-based or functional assay; remark: listed apart in the source
[9] = biological target: T4, Human PAR2 StaR incorporated into …; experiment: SPR Biacore; human PAR2 StaR incorporated into nanodiscs

kon [1]	Kd [2]	koff [2]	kon [2]	t½ [2]	% Max Inhibition, AP challenge, IP-One [3]	Kd [4]	koff [4]	kon [4]	Kd [5]	IC50 (nM), SLIGKV agonist challenge, Human [6]	IC50 (nM), SLIGKV agonist challenge, Cyno [7]	% Max Inhibition, Bovine Trypsin challenge, IP-One [8]	Kd [9]	koff [9]	kon [9]	Binder
96000 M⁻¹ s⁻¹	0.21 nM	7e-06 s⁻¹	34000 M⁻¹ s⁻¹	27.6 h	203%	0.21 nM	7e-06 s⁻¹	34000 M⁻¹ s⁻¹	≤ 0.21 nM	61 nM	88 nM	10%	2.7 nM	0.00025 s⁻¹	93000 M⁻¹ s⁻¹	Y022870 (antibody, human IgG1, lambda, V domains shown, also called Y22870) VH: EVQLLESGGGLVQPGGSLRLSCAASGFSFSRYAITWVRQAPGKGLEWVSTISALGLETYYAESVRGRFTISRDNSKNTLYLQMNSLRAEDTAVYYCARGFHYTHSGKRYYYPFDIWGQGTLVTVSS VL: QSALTQPASVSGSPGQSITISCTGTSSDVGSYNLVSWYQQHPGKAPKLMIYEGSKRPSGVSNRFSGSKSGNTASLTISGLQAEDEADYYCSQYATFIAFAVFGGGTKLTVLG
68000 M⁻¹ s⁻¹	0.3 nM	8e-06 s⁻¹	27000 M⁻¹ s⁻¹	24.1 h	167%	0.3 nM	8e-06 s⁻¹	27000 M⁻¹ s⁻¹	0.29 nM	52 nM	74 nM	58%	2.8 nM	0.00021 s⁻¹	73000 M⁻¹ s⁻¹	Y022877 (antibody, human IgG1, lambda, V domains shown, also called Y22877) VH: EVQLLESGGGLVQPGGSLRLSCAASGFTFSRYAMTWVRQAPGKGLEWVSTISGLGQEAYYAGSVKGRFTISRDNSKNTLYLQMNSLRAEDTAVYYCARGFHYTHSGKRYYYPFDIWGQGTLVTVSS VL: QSALTQPASVSGSPGQSITISCTGTSSDVGSYNLVSWYQQHPGKAPKLMIYEGSKRPSGVSNRFSGSKSGNTASLTISGLQAEDEADYYCSQYATFIAFAVFGGGTKLTVLG
140000 M⁻¹ s⁻¹	0.4 nM	1.2e-05 s⁻¹	30000 M⁻¹ s⁻¹	16.2 h	149%	0.4 nM	1.2e-05 s⁻¹	30000 M⁻¹ s⁻¹	0.14 nM	54 nM	68 nM	48%	–	–	–	Y022883 (antibody, human IgG1, lambda, V domains shown, also called Y22883; Y02283) VH: EVQLLESGGGLVQPGGSLRLSCAASGFSFTRYAISWVRQAPGKGLEWVSVISGHGSEANYAESVKGRFTISRDNSKNTLYLQMNSLRAEDTAVYYCARGFHYTHSGKRYYYPFDIWGQGTLVTVSS VL: QSALTQPASVSGSPGQSITISCTGTSSDVGSYNLVSWYQQHPGKAPKLMIYEGSKRPSGVSNRFSGSKSGNTASLTISGLQAEDEADYYCSQYATFIAFAVFGGGTKLTVLG

From patent US20250313621A1 (NXERA PHARMA UK, published 2025)
